# The FLAb antibody collection (doi:10.7554/elife.23156)
# B1: scFv; the commonest letter at each place (parent)
# chain 1: EVKLDETGGGLVQPGRPMKLSCVASGFTFSDYWMNWVRQSPEKGLEWVAQIRNKPYNYETYYSDSVKGRFTISRDDSKSSVYLQMNNLRVEDMGIYYCTGSYYGMDYWGQGTSVTVS
# chain 2: DVVMTQTPLSLPVSLGDQASISCRSSQSLVHSNGNTYLRWYLQKPGQSPKVLIYKVSNRFSGVPDRFSGSGSGTDFTLKISRVEAEDLGVYFCSQSTHVPWTFGGGTKLEIK
# Tests used:
# [1] = variants of: B1; assay: Kd (Tite-Seq); details: with fluorescein; format: scFv 4-4-20, heavy + light
# [2] = variants of: B1; assay: yeast surface expression (ratio to wild type); higher = more expressed; details: format: scFv 4-4-20, heavy + light
Variant,Kd [1],yeast surface expression [2]
chain 1 G100R Y103I,≥ 10 µM,0.418
chain 1 G100R Y107N G109K,≥ 10 µM,0.235
chain 1 G100R Y107P W108D,≥ 10 µM,0.43
chain 1 G100S D106E,0.0534 µM,1.15
chain 1 G100S G104W,≥ 10 µM,0.425
chain 1 G100S M105I,≥ 10 µM,0.943
chain 1 G100S M105Q D106N,≥ 10 µM,0.522
chain 1 G100S M105R,0.311 µM,0.929
chain 1 G100S M105W,5.37 µM,0.758
chain 1 G100S S101D,≥ 10 µM,0.892
chain 1 G100S Y102C,≥ 10 µM,0.675
chain 1 G100S Y102K,0.0335 µM,0.868
chain 1 G100S Y102T,0.0233 µM,0.74
chain 1 G100S Y103H,0.0245 µM,1.01
chain 1 G100S Y103L W108N,≥ 10 µM,0.26
chain 1 G100S Y103P,≥ 10 µM,0.689
chain 1 G100T,0.921 µM,0.994
chain 1 G100T D106A,≥ 10 µM,0.704
chain 1 G100T D106V,≥ 10 µM,0.468
chain 1 G100T G104V D106E,≥ 10 µM,0.398
chain 1 G100T G109K,≥ 10 µM,0.433
chain 1 G100T M105C,≥ 10 µM,0.754
chain 1 G100T M105G,≥ 10 µM,0.878
chain 1 G100T M105T,≥ 10 µM,0.909

Variant,Kd [1],yeast surface expression [2]
chain 1 G100T M105W,≥ 10 µM,0.733
chain 1 G100T S101D,≥ 10 µM,0.83
chain 1 G100T S101N G104K,≥ 10 µM,0.565
chain 1 G100T Y102H D106M,≥ 10 µM,1.02
chain 1 G100T Y103E,≥ 10 µM,1.28
chain 1 G100V G104D,≥ 10 µM,0.777
chain 1 G100V G104F,≥ 10 µM,0.472
chain 1 G100V G109L,≥ 10 µM,0.256
chain 1 G100V G109Y,≥ 10 µM,0.271
chain 1 G100V S101I,≥ 10 µM,0.653
chain 1 G100V S101M,≥ 10 µM,0.712
chain 1 G100V W108C,5.96 µM,0.628
chain 1 G100V W108V,0.000846 µM,0.892
chain 1 G100V Y102P M105N,≥ 10 µM,0.63
chain 1 G100V Y103R G104L,≥ 10 µM,0.88
chain 1 G100V Y107H,≥ 10 µM,0.772
chain 1 G100V Y107N G109P,≥ 10 µM,0.341
chain 1 G100W D106C,≥ 10 µM,0.437
chain 1 G100W G109S,≥ 10 µM,0.43
chain 1 G100W S101D G109V,≥ 10 µM,0.286
chain 1 G100W S101P D106M,≥ 10 µM,0.186
chain 1 G100W W108V,0.15 µM,0.251
chain 1 G100W Y102S,0.00606 µM,0.723
chain 1 G100W Y103S,≥ 10 µM,0.463

Variant,Kd [1],yeast surface expression [2]
chain 1 G100W Y107D G109L,≥ 10 µM,0.227
chain 1 G100W Y107Q,≥ 10 µM,0.323
chain 1 G100W Y107R,≥ 10 µM,0.229
chain 1 G100Y,≥ 10 µM,0.606
chain 1 G100Y D106S,≥ 10 µM,0.505
chain 1 G100Y G104C,≥ 10 µM,0.183
chain 1 G100Y G109W,≥ 10 µM,0.26
chain 1 G100Y M105R,≥ 10 µM,0.513
chain 1 G100Y M105S,≥ 10 µM,0.377
chain 1 G100Y S101P,≥ 10 µM,0.251
chain 1 G100Y Y103C,≥ 10 µM,0.567
chain 1 G100Y Y107T,≥ 10 µM,0.388
chain 1 G104A,≥ 10 µM,0.693
chain 1 G104A D106Q,≥ 10 µM,0.575
chain 1 G104A D106Q Y107E,≥ 10 µM,0.519
chain 1 G104A M105E,≥ 10 µM,0.648
chain 1 G104C M105P,≥ 10 µM,0.256
chain 1 G104C Y107F,≥ 10 µM,0.291
chain 1 G104C Y107V,≥ 10 µM,0.461
chain 1 G104D M105L,≥ 10 µM,1.07
chain 1 G104D M105W,≥ 10 µM,0.703
chain 1 G104D W108T,≥ 10 µM,0.417
chain 1 G104D Y107D,≥ 10 µM,0.716

# Further lines, with some results ahead:
Kd [1],Variant,yeast surface expression [2]
≥ 10 µM,chain 1 G100R Y103V W108N,0.274
0.0038 µM,chain 1 G100S,0.938
≥ 10 µM,chain 1 G100S D106C,1.03
≥ 10 µM,chain 1 G100S Y107A,0.942
≥ 10 µM,chain 1 G100S Y107D,0.543
≥ 10 µM,chain 1 G100T Y102N,0.932
≥ 10 µM,chain 1 G100V,0.97
≥ 10 µM,chain 1 G100V D106Q,0.639
≥ 10 µM,chain 1 G100V G104A,0.747
≥ 10 µM,chain 1 G100V M105S,0.855
≥ 10 µM,chain 1 G100V S101H,0.872
≥ 10 µM,chain 1 G100V S101N,0.787
≥ 10 µM,chain 1 G100V W108N,0.468
0.876 µM,chain 1 G100V Y103F,0.679
≥ 10 µM,chain 1 G100V Y107M,0.726
≥ 10 µM,chain 1 G100W,0.491
≥ 10 µM,chain 1 G100W D106F,0.18
≥ 10 µM,chain 1 G100W D106S W108L,0.243
≥ 10 µM,chain 1 G100W G104I,0.359
≥ 10 µM,chain 1 G100W G104L W108M,0.108
≥ 10 µM,chain 1 G100W S101E,0.429
≥ 10 µM,chain 1 G100W S101L,0.293

Kd [1],Variant,yeast surface expression [2]
≥ 10 µM,chain 1 G100W S101P,0.197
≥ 10 µM,chain 1 G100W Y102N D106L,0.286
≥ 10 µM,chain 1 G100Y D106I,0.398
≥ 10 µM,chain 1 G100Y G109L,0.306
≥ 10 µM,chain 1 G100Y G109P,0.22
≥ 10 µM,chain 1 G100Y S101E,0.708
≥ 10 µM,chain 1 G100Y W108L,0.393
≥ 10 µM,chain 1 G100Y Y102T,0.662
≥ 10 µM,chain 1 G100Y Y107K,0.555
≥ 10 µM,chain 1 G100Y Y107Q,0.595
≥ 10 µM,chain 1 G100Y Y107W,0.468
≥ 10 µM,chain 1 G104A D106K,0.362
≥ 10 µM,chain 1 G104A D106T,0.78
≥ 10 µM,chain 1 G104A M105P,0.375
≥ 10 µM,chain 1 G104A M105T,0.685
≥ 10 µM,chain 1 G104C,0.578
≥ 10 µM,chain 1 G104C M105I,0.349
≥ 10 µM,chain 1 G104C Y107P W108I,0.214
≥ 10 µM,chain 1 G104D,0.918
≥ 10 µM,chain 1 G104D G109L,0.236
≥ 10 µM,chain 1 G104D G109V,0.266
≥ 10 µM,chain 1 G104D W108Q,0.249
